Experiment [1] addresses T1, GST-CshA (S. aureus, UniProt Q2FF45 1-506).
T1 construct: DEAD-box RNA helicase CshA, Staphylococcus aureus; also called GST-tagged CshA; not shown: GST, N-terminal, kept
Briefly: pull-down; 1 uM GST or GST fusion coupled to glutathione beads; incubated with His-tagged protein (printed 1 pM) in 25 mM Tris pH 7.5, 150 mM NaCl, 5 mM MgCl2, 0.5% Triton X-100 at 4°C overnight; eluted with glutathione; blot with anti-His-HRP. The conditions noted are these: both partners purified.

In experiment [2] the target is T2, Era fused to SB (small bit of luciferase) (S. aureus, UniProt Q2FGF6 1-299).
T2 construct: GTPase Era, Staphylococcus aureus; For the Era-Era pair the second copy of Era was fused to the large bit (LB); also called EraSB; full-length Era; source: S. aureus LAC*, expressed from pAP118 with Atet, in cells
T2 sequence (looked up): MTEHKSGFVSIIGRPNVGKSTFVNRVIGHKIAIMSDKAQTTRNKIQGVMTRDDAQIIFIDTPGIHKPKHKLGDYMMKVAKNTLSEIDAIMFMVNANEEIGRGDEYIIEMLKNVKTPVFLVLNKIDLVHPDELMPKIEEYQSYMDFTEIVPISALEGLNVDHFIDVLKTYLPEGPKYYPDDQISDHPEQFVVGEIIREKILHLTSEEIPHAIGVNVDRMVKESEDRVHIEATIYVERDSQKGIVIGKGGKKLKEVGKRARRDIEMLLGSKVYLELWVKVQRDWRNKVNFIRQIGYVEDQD
Description: split reporter (BiFC, NanoBiT); split luciferase (SB and LB fusions from pAP118) in S. aureus LAC*; 100 ng/ml Atet for 90 min, normalised to OD600 0.1, Nano-Glo; luminescence relative to a control with one fusion only. The conditions noted are these: partners not purified.

B1: His-tagged Era (natural protein, S. aureus, UniProt Q2FGF6 1-299, looked up)
chain: MTEHKSGFVSIIGRPNVGKSTFVNRVIGHKIAIMSDKAQTTRNKIQGVMTRDDAQIIFIDTPGIHKPKHKLGDYMMKVAKNTLSEIDAIMFMVNANEEIGRGDEYIIEMLKNVKTPVFLVLNKIDLVHPDELMPKIEEYQSYMDFTEIVPISALEGLNVDHFIDVLKTYLPEGPKYYPDDQISDHPEQFVVGEIIREKILHLTSEEIPHAIGVNVDRMVKESEDRVHIEATIYVERDSQKGIVIGKGGKKLKEVGKRARRDIEMLLGSKVYLELWVKVQRDWRNKVNFIRQIGYVEDQD
notes: GTPase Era, Staphylococcus aureus; also called His-Era; recombinant Era
On to B1, for which the binding result in experiment [1] is on record as “binds”.

B2: full-length CshA fused to LB (large bit of luciferase) (natural protein, S. aureus, UniProt Q2FF45 1-506, looked up)
chain: MQNFKELGISDNTVQSLESMGFKEPTPIQKDSIPYALQGIDILGQAQTGTGKTGAFGIPLIEKVVGKQGVQSLILAPTRELAMQVAEQLREFSRGQGVQVVTVFGGMPIERQIKALKKGPQIVVGTPGRVIDHLNRRTLKTDGIHTLILDEADEMMNMGFIDDMRFIMDKIPAVQRQTMLFSATMPKAIQALVQQFMKSPKIIKTMNNEMSDPQIEEFYTIVKELEKFDTFTNFLDVHQPELAIVFGRTKRRVDELTSALISKGYKAEGLHGDITQAKRLEVLKKFKNDQINILVATDVAARGLDISGVSHVYNFDIPQDTESYTHRIGRTGRAGKEGIAVTFVNPIEMDYIRQIEDANGRKMSALRPPHRKEVLQAREDDIKEKVENWMSKESESRLKRISTELLNEYNDVDLVAALLQELVEANDEVEVQLTFEKPLSRKGRNGKPSGSRNRNSKRGNPKFDSKSKRSKGYSSKKKSTKKFDRKEKSSGGSRPMKGRTFADHQK
notes: DEAD-box RNA helicase CshA, Staphylococcus aureus, 506 residues by the printed domain limits; also called CshALB; source: S. aureus LAC*, expressed from pAP118 with Atet, in cells
Turning to B2, the “fold increase in luciferase activity” value in experiment [2] was found to be 4 fold.

(Values after publication doi:10.1101/477745, “The (p)ppGpp-binding GTPase Era promotes rRNA processing and cold shock survival in Staphylococcus aureus” (bioRxiv, 2019).)
